Assays:
[1] = target: T1, TCR/FcR #2 CD16 extracellular domain (Fc binding domain) comprising polypeptide: WT high affinity CD16 … (human, UniProt P08637 17-254); experiment: flow cytometry; 1 h, 37 °C, complete media, washed (FIGS. 38C-38D)
T1 construct: these cells also carry endogenous CD16; also called TCR/FcR #2 transduced NK cells; uTNK15 and TCR/FcR #2 transduced NK cells

[2] = target: T2, non-transduced (NT) cord blood derived NK cells (endogenous wild type CD16; no CD3/TCR) (human, UniProt P08637 17-254); experiment: as above
T2 construct: whole, on cells; A control cell, not a single protein; for the CD3 engagers the cells are the control without CD3; also called NT NK cells; NT NK
T2 sequence (P08637 17-254): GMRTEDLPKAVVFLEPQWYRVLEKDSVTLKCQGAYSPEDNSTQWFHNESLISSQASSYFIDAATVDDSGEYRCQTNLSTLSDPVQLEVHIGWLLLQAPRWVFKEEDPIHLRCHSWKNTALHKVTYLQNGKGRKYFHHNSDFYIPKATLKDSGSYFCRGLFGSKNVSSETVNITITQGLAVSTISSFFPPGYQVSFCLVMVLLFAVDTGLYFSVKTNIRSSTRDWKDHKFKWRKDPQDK

T1 sequence (P08637 17-254 F176V limits assumed, form in doubt): as the sequence (P08637 17-254) above, with F160V counted along it

B1: Tafasitamab (antibody)
chain 1: EVQLVESGGGLVKPGGSLKLSCAASGYTFTSYVMHWVRQAPGKGLEWIGYINPYNDGTKYNEKFQGRVTISSDKSISTAYMELSSLRSEDTAMYYCARGTYYYGTRVFDYWGQGTLVTVSSASTKGPSVFPLAPSSKSTSGGTAALGCLVKDYFPEPVTVSWNSGALTSGVHTFPAVLQSSGLYSLSSVVTVPSSSLGTQTYICNVNHKPSNTKVDKKVEPKSCDKTHTCPPCPAPELLGGPDVFLFPPKPKDTLMISRTPEVTCVVVDVSHEDPEVQFNWYVDGVEVHNAKTKPREEQFNSTFRVVSVLTVVHQDWLNGKEYKCKVSNKALPAPEEKTISKTKGQPREPQVYTLPPSREEMTKNQVSLTCLVKGFYPSDIAVEWESNGQPENNYKTTPPMLDSDGSFFLYSKLTVDKSRWQQGNVFSCSVMHEALHNHYTQKSLSLSPGK
chain 2: DIVMTQSPATLSLSPGERATLSCRSSKSLQNVNGNTYLYWFQQKPGQSPQLLIYRMSNLNSGVPDRFSGSGSGTEFTLTISSLEPEDFAVYYCMQHLEYPITFGAGTKLEIKRTVAAPSVFIFPPSDEQLKSGTASVVCLLNNFYPREAKVQWKVDNALQSGNSQESVTEQDSKDSTYSLSSTLTLSKADYEKHKVYACEVTHQGLSSPVTKSFNRGEC
[1]
  binding percentage (average across 3 trials): > 80%
[2]
  binding percentage (average across 3 trials): ~70%

Reference: US20260275288A1 (University of Texas, published 2026)
